Test results: the supplement of paper PMC7877785
± gives the uncertainty stated by the source.

Assay: self-splicing fitness, log relative to wild type (ln ratio); higher = more splicing; Tetrahymena group I intron in knt gene, E. coli kanamycin selection, DiMSum; sequences stand for … in CUCUCU…GGAGGGAAAAGUUAUCAGGCAUGCACCUGGUAGCUAGUCUUUAAACCAAUAGAUUGCAUCGGUUUAAAAGGCAAGACCGUCAAAUUGCGGGAAAGGGGUCAACAGCCGUUCAGUACCAAGUCUCAGGGGAAACUUUGAGAUGGCCUUGCAAAGGGUAUGGUAAUAAGCUGACGGACAUGGUCCUAACCACGCAGCCAAGUCCUAAGUCAACAGAUCUUCUGUUGAUAUGGAUGCAGUUCACAGACUAAAUGUCGGUCGGGGAAGAUGUAUUCUUCUCAUAAGAUAUAGUCGGACCUCUCCUUAAUGGGAGCUAGCGGAUGAAGUGAUGCAACACUGGAGCCGCUGGGAACUAAUUUGUAUGCGAAAGUAUAUUGAUUAGUUUUGGAGUACUCGUGGUCG
How it was run: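 The eight P1ex-region nucleotides of an intron in the knt kanamycin-resistance gene on pET-22b(+) were all randomised and the library put into E. coli BL21(DE3). Six replicate transformations were grown overnight at 37°C or 30°C on LB agar with or without 25 μg/mL kanamycin, together with 100 μg/mL carbenicillin, 50 μM IPTG and 0.2% rhamnose. Colonies were pooled and amplicon-sequenced on an Illumina HiSeq 2500. Fitness from DiMSum is the error-weighted combination of wild-type-normalised replicate fold changes, kanamycin over none.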

| Sequence | self-splicing fitness (ln) (30 °C) | self-splicing fitness (ln) (37 °C) |
| --- | --- | --- |
| CUAUAGCAAUAUUACGUGUG | -1.04 ± 0.079 | -0.474 ± 0.096 |
| UAUAAGCAAUAUUACGACUA | 0.0842 ± 0.075 | 0.29 ± 0.094 |
| GCUCAGCAAUAUUACGGUAG | -2.79 ± 0.26 | -1.89 ± 0.21 |
| UUCCAGCAAUAUUACGCGCG | -0.776 ± 0.068 | -0.688 ± 0.099 |
| ACCAAGCAAUAUUACGUAUC | -3.4 ± 0.1 | -2.34 ± 0.11 |
| UCGCAGCAAUAUUACGUCCG | -0.808 ± 0.078 | -0.0675 ± 0.1 |
| CAUAAGCAAUAUUACGUAUG | -3.87 ± 0.2 | -2.74 ± 0.23 |
| UCGUAGCAAUAUUACGCCCU | -1 ± 0.25 | -0.827 ± 0.34 |
| UCUAAGCAAUAUUACGUAGU | -0.857 ± 0.05 | -0.481 ± 0.069 |
| UGGAAGCAAUAUUACGGGGA | -2.19 ± 0.15 | -2.16 ± 0.16 |
| GGGAAGCAAUAUUACGGCCA | -0.752 ± 0.14 | -0.611 ± 0.19 |
| GGGUAGCAAUAUUACGUACA | -1.34 ± 0.2 | -0.763 ± 0.21 |
| UCCUAGCAAUAUUACGCGGC | -3.42 ± 0.44 |  |
| GGAAAGCAAUAUUACGACCU | -0.756 ± 0.15 | -0.363 ± 0.18 |
| CCUGAGCAAUAUUACGCCAC | -3.2 ± 0.45 | -1.35 ± 0.36 |
| CCUAAGCAAUAUUACGGGGG | -3.51 ± 0.2 | -2.5 ± 0.24 |
| UAAGAGCAAUAUUACGUCCC | -3.99 ± 0.42 |  |
| UUCAAGCAAUAUUACGAGUG | -0.827 ± 0.06 | -0.257 ± 0.077 |
| GAUAAGCAAUAUUACGCCCU | -0.569 ± 0.13 | 0.292 ± 0.15 |
| CGGCAGCAAUAUUACGGCCC | -1.31 ± 0.27 | 0.163 ± 0.21 |
| GUAGAGCAAUAUUACGGCUA | -0.487 ± 0.11 | 0.641 ± 0.16 |
| UGUUAGCAAUAUUACGACUU | -0.357 ± 0.11 | 0.12 ± 0.12 |
| AGGGAGCAAUAUUACGAGAU | -2.75 ± 0.29 | -3.06 ± 0.48 |
| GGUGAGCAAUAUUACGUGGC |  | -2.59 ± 0.33 |
| UGCCAGCAAUAUUACGAAUC | -4.4 ± 0.46 |  |
| UCAAAGCAAUAUUACGUUGU | -3.4 ± 0.13 | -2.02 ± 0.12 |

| Sequence | self-splicing fitness (ln) (30 °C) | self-splicing fitness (ln) (37 °C) |
| --- | --- | --- |
| GGCGAGCAAUAUUACGCAAA | -2.13 ± 0.19 | -2.01 ± 0.14 |
| CUUGAGCAAUAUUACGUGGA | -2.88 ± 0.24 | -3.25 ± 0.33 |
| UAUUAGCAAUAUUACGUCCG | -0.732 ± 0.16 | -0.925 ± 0.19 |
| AGGUAGCAAUAUUACGCUCG | -0.57 ± 0.017 | -0.241 ± 0.036 |
| AAGGAGCAAUAUUACGUCGG | -3.13 ± 0.19 | -2.74 ± 0.33 |
| CCGAAGCAAUAUUACGAUAA | -2.83 ± 0.12 | -2.96 ± 0.25 |
| CUCGAGCAAUAUUACGACCA | -3.07 ± 0.26 | -2.22 ± 0.49 |
| GCGAAGCAAUAUUACGUCUC | -2.04 ± 0.12 | -1.41 ± 0.14 |
| UGGAAGCAAUAUUACGCUUA | -1.39 ± 0.13 | 0.125 ± 0.15 |
| CUGGAGCAAUAUUACGGUUG | -1.87 ± 0.081 | -1.11 ± 0.095 |
| CCUGAGCAAUAUUACGACUC | -1.44 ± 0.36 | -1.6 ± 0.49 |
| GAUCAGCAAUAUUACGUCAG | -4.35 ± 0.43 | -2.43 ± 0.28 |
| AUCCAGCAAUAUUACGGUUG | -2.95 ± 0.1 | -1.03 ± 0.087 |
| AAAGAGCAAUAUUACGCUUC | -2.33 ± 0.29 | -3.01 ± 0.43 |
| AUAAAGCAAUAUUACGGCAG | -0.699 ± 0.092 | -0.0772 ± 0.13 |
| AUGCAGCAAUAUUACGGUGG | -3.96 ± 0.18 | -1.86 ± 0.12 |
| CUAAAGCAAUAUUACGUACC |  | -2.03 ± 0.46 |
| GCAAAGCAAUAUUACGAACG | -1.46 ± 0.077 | -0.561 ± 0.11 |
| AAUCAGCAAUAUUACGCAGA | -1.04 ± 0.068 | -0.32 ± 0.07 |
| AGGUAGCAAUAUUACGUGAG | -1.02 ± 0.011 | -0.588 ± 0.032 |
| ACAGAGCAAUAUUACGUGUG | -2.65 ± 0.12 | -2.99 ± 0.14 |
| CAGAAGCAAUAUUACGCGCC | -2.83 ± 0.25 | -1.34 ± 0.18 |
| UGCGAGCAAUAUUACGGAGU |  | -2.08 ± 0.3 |
| GACGAGCAAUAUUACGUGUA | -5.08 ± 0.25 | -2.49 ± 0.14 |
| AAAAAGCAAUAUUACGUUCA | -0.237 ± 0.075 | 0.0228 ± 0.089 |
| GCUUAGCAAUAUUACGCCGG | -1.97 ± 0.2 | -1.44 ± 0.22 |

| Sequence | self-splicing fitness (ln) (30 °C) | self-splicing fitness (ln) (37 °C) |
| --- | --- | --- |
| GCCUAGCAAUAUUACGAAGC | -2.24 ± 0.13 | -2.15 ± 0.19 |
| ACUCAGCAAUAUUACGACCC | -0.845 ± 0.19 | -2.22 ± 0.22 |
| AUGAAGCAAUAUUACGCGGA | -0.591 ± 0.1 | -0.105 ± 0.12 |
| CUGAAGCAAUAUUACGCGCU | -3.35 ± 0.29 |  |
| ACUUAGCAAUAUUACGGAGA | -3.19 ± 0.28 | -2.07 ± 0.2 |
| CUUUAGCAAUAUUACGAUCU | -3.2 ± 0.36 | -2.48 ± 0.45 |
| GGGGAGCAAUAUUACGAUAC | -2.37 ± 0.3 | -0.552 ± 0.27 |
| CACAAGCAAUAUUACGAGUA | -1.9 ± 0.085 | -0.487 ± 0.078 |
| AUAUAGCAAUAUUACGACUU | 0.217 ± 0.073 | -0.272 ± 0.075 |
| GCAUAGCAAUAUUACGUGUC | -3.89 ± 0.2 | -1.96 ± 0.2 |
| AGUGAGCAAUAUUACGAUUC | -2.97 ± 0.28 | -1.27 ± 0.33 |
| GGGAAGCAAUAUUACGCUUU | -3.54 ± 0.24 |  |
| AAGAAGCAAUAUUACGUCAG | -2.66 ± 0.2 | -1.91 ± 0.16 |
| ACAAAGCAAUAUUACGAUAA | -1.38 ± 0.086 | -1 ± 0.1 |
| ACAUAGCAAUAUUACGUUCC | -2.65 ± 0.23 | -2.1 ± 0.34 |
| AUCGAGCAAUAUUACGACCG |  | -1.63 ± 0.36 |
| ACAUAGCAAUAUUACGGUAA | -2.88 ± 0.15 | -1.52 ± 0.12 |
| UAAAAGCAAUAUUACGUAUC | -3.81 ± 0.35 | -2.07 ± 0.23 |
| AAUAAGCAAUAUUACGUGGG | -3 ± 0.13 | -2.75 ± 0.17 |
| AACCAGCAAUAUUACGGUAC | -2.82 ± 0.12 | -1.1 ± 0.088 |
| GCGAAGCAAUAUUACGUGGA | -1.9 ± 0.13 | -2.88 ± 0.21 |
| UUUAAGCAAUAUUACGACCC | -1.3 ± 0.31 | 0.0123 ± 0.28 |
| CUGGAGCAAUAUUACGGGUC | -1.97 ± 0.16 | -2.26 ± 0.34 |
| UCCCAGCAAUAUUACGAGUA | -1 ± 0.072 | -0.558 ± 0.069 |
| CUUCAGCAAUAUUACGAUAC | -3.22 ± 0.19 | -2.14 ± 0.33 |
| AUAGAGCAAUAUUACGAUUG | -3.46 ± 0.2 | -1.33 ± 0.15 |
